# B1: fetal bovine AChE: serum derived fetal bovine AChE; heterologous FBS-AChE in the monkey study (protein, UniProt P23795 31-613, looked up)
# Acetylcholinesterase: EGPEDPELLVMVRGGRLRGLRLMAPRGPVSAFLGIPFAEPPVGPRRFLPPEPKRPWPGVLNATAFQSVCYQYVDTLYPGFEGTEMWNPNRELSEDCLYLNVWTPYPRPSSPTPVLVWIYGGGFYSGASSLDVYDGRFLTQAEGTVLVSMNYRVGAFGFLALPGSREAPGNVGLLDQRLALQWVQENVAAFGGDPTSVTLFGESAGAASVGMHLLSPPSRGLFHRAVLQSGAPNGPWATVGVGEARRRATLLARLVGCPPGGAGGNDTELVACLRARPAQDLVDHEWRVLPQESVFRFSFVPVVDGDFLSDTPEALINAGDFHGLQVLVGVVKDEGSYFLVYGAPGFSKDNESLISRAQFLAGVRVGVPQASDLAAEAVVLHYTDWLHPEDPARLREALSDVVGDHNVVCPVAQLAGRLAAQGARVYAYIFEHRASTLSWPLWMGVPHGYEIEFIFGLPLEPSLNYTIEERTFAQRLMRYWANFARTGDPNDPRDPKAPQWPPYTAGAQQYVSLNLRPLEVRRGLRAQACAFWNRFLPKLLSATDTLDEAERQWKAEFHRWSSYMVHWKNQFDHYSKQDRCSDL
# B2: serum derived human BChE: serum derived human butyrylcholinesterase (protein, UniProt P06276 29-602, looked up)
# Cholinesterase: EDDIIIATKNGKVRGMNLTVFGGTVTAFLGIPYAQPPLGRLRFKKPQSLTKWSDIWNATKYANSCCQNIDQSFPGFHGSEMWNPNTDLSEDCLYLNVWIPAPKPKNATVLIWIYGGGFQTGTSSLHVYDGKFLARVERVIVVSMNYRVGALGFLALPGNPEAPGNMGLFDQQLALQWVQKNIAAFGGNPKSVTLFGESAGAASVSLHLLSPGSHSLFTRAILQSGSFNAPWAVTSLYEARNRTLNLAKLTGCSRENETEIIKCLRNKDPQEILLNEAFVVPYGTPLSVNFGPTVDGDFLTDMPDILLELGQFKKTQILVGVNKDEGTAFLVYGAPGFSKDNNSIITRKEFQEGLKIFFPGVSEFGKESILFHYTDWVDDQRPENYREALGDVVGDYNFICPALEFTKKFSEWGNNAFFYYFEHRSSKLPWPEWMGVMHGYEIEFVFGLPLERRDNYTKAEEILSRSIVKRWANFAKYGNPNETQNNSTSWPVFKSTEQKYLTLNTESTRIMTKLRAQQCRFWTSFFPKVLEMTGNIDEAEWEWKAGFHRWNNYMMDWKNQFNDYTSKKESCVGL
# Key:
# [1] = mice, earlier reports; cited from earlier work
# anti-AChE antibody = assay: Immunogenicity in rhesus macaques: anti-AChE antibody formation by ELISA after repeated monthly administration; type: in vivo; settings: monthly intervals, no adjuvant
# Source text: Anti-AChE antibody levels elicited by PEGylated rHuAChE, were compared to those induced by nonmodified rHuAChE or FBS-AChE, following their administration to rhesus macaques. To this end, non-modified or PEG-modified AChE or the heterologous FBS-AChE (no adjuvant included) were repeatedly administered to monkeys at monthly intervals, and anti-AChE antibody formation was monitored by ELISA (FIG. 8).
Molecule,MRT (mean residual time) [1],development of anti-AChE antibody after repeated administrations (anti-AChE antibody)
horse BChE: serum derived horse butyrylcholinesterase [reference compound],"approximately 1,400 minutes",–
B1,"approximately 1,400 minutes",following the third administration
B2,"approximately 1,400 minutes",–

# — US8980609B2, “Uniformly conjugated serine hydrolases” (Israel Institute for Biological Research, priority 2005, dated 2015)
